Assay results taken from IntAct's records for PubMed 20094029.

B1: BRCT-containing protein 1 (Schizosaccharomyces pombe (strain ATCC 38366 / 972)), Q10337 (parent)
chain: MLAAESSNKELFIKNDGKALSFPYDWKLATHVICDDFSSPNVQEGSKRSLRLAKTNWIRDCVDKNTLLNYSFYSCNPYLLFKGICASSCQIDSYQSSLIDDALETFGGRFSKGLMKSMTHLFTYSGMGAKCKKVLDKPSLSIKLIHPQWLLDCLQFGQLIDQDPYLFPNPSYKKNDSSISKAEPTSLFRNVLHGKRIYFSNDLNLPTNFRHSLQKFSVGIGAKIAESINDCDIFIGLKRDTIEFNLASNKNTTIGTISWLLNLFVLGSWKSPLLNALHYPFPSVGFLKDQMVAVTNYTDAARIYLEKLLLACGATYTKDLKPTNTLLIAASSYGQKYGAAKVWNIPTVHHSWLYSSFKNLSSQAFTDFPVPLDDSYMDFIFPCPLNVEKGSFEDTLKSSLTKGNSEVLLDDLSDPSVSSIKGNKTNEELEKEFKSTSDNFGKHIILTSSFSNQSADKGSSLAAEDDRNDEGSTITGVNRELQDEGRLEIDAKSSKTNTPPSPLLVGTPSKESLKEASSDDELPVLATKLVDNVIKEKSPLSLTPKVVVPSHKETYTDEKKLIDELDRVNPLNSSQLLRSKRKSAATALSMLQNVIMPDVLAFEREKKRRQTHRSVSSGEVSRESSESRNTNAKASKRVYITFTGYDKKPSIDNLKKLDMSITSNPSKCTHLIAPRILRTSKFLCSIPYGPCVVTMDWINSCLKTHEIVDEEPYLLNDPEKELELGCTLESALKRARAQGPSLLEDYVVYLTSKTVAPENVPAVISIVKSNGGVCSTLNVYNKRLARHLEDGNVVLITCNEDSHIWTNFLDNASQNKTIFLQNYDWLIKTVLRQEIDVNDRIADEFARAV

Variants of: B1
Conditions: with h2a1_schpo hta1, P04909

effect of a mutation on the interaction	Variant
disrupting interaction	T643A
